From the DeepSol protein solubility set

Assay: soluble on expression in E. coli; label from the status in PepcDB or PDB records

Sequence	soluble on expression in E. coli
MSLNISTGLLIVESPTKAKTIAKMFSRPSVRIRNKVPVYETIIVDGNQIYVLDIVASKGHIVDLTLEDIGYYGIKVEDDGTIKPYYDLIKKCLDCNKIFSSASDKCPYCGSANLQSAQTTINLLRELALSVDKVFIASDPDTEGEKIAYDLASFLSPYNSNVYRVVYHEITKKAILEALRNPKKINTNLVMSQIVRRIEDRWIGFTLSNLLKTKFNGHNHGAGRVQTPVLGWIVNKTIKYKSAMGHVVYIDIAGYSIKKYFSEKRKVEEYINNLQVARIEKISEEKILLSPLPPFTTDTLLIEANMKYKLPANLVMKIAQDLFEAGLITYHRTDSTHISSVGIEIAKEYLQKQALIKEFVPRSWESSEEGAHEAIRPTRAIDVNELIQEIEENPYKYSIRFSKLHLLIYDLIFKRFIASQMSHAVGTKSRYLIKLGKDDNVDVELLSNAEGGFIKVYPVKVYNLPVGEIQPKVNITKGSSEQLLSYSDVISLMKSKGIGRPSTYAKTIENLMKHGYIVSSKRKSYLIATNRGISVYQFLSSKFYDLVSESTTSRLMTKLDDIALSKLNASTVLLEIFSEISTLVNPLKSEEGHHHHHH	soluble
MSLNKKRPLKGRFLHITDIHPDPHYKTGSTFDSGCHRKPKKDGKSEGKKATENERGNEDLDDKEFDTLIKNEDLAGKWGTAVSDCDCPMSLVNITFDWLKEEWANEVDFVVWTGDNARHDIDRRIPRTPKEIFDSNRMIVDRMLDAFGRDMPIVPSIGNNDIYPHNVLAAGPSRITEEFLLIWKHFIPSEAAHVFERGAYFSVEVIPDRLAVISLNTLFWYDANTLVDGCRDHSNDPGALEMDWLEVQLNNFRQRGMQVWLTGHVPPHMNHYYDNCYLRYGDLALRYQDTIVGHLFGHMNVDHFFFIDVDELEATSELTSTSSNTTLSDLPLLHGPRLPRPGPGKYTAMGRSGARKLEEELRKDEGHHHHHH	soluble
MSLNKVRLGIIGLGAQGGTYAGFINDNKIANLELGAICDIDPEKRTVAAEKYPNVPFYDNYIDMLESGDVDAIVTTVPHYLHTEIGKEALSRDIHALLEKPGDIYAEKVKEISDLAASKPNLTFGIFFNQRTNPLYQKVKSLIDNGEIGEIRRTNWIITTWWRPQAYYDQSSWRATWSGEGGGVLVNQAPHQIDLLQWLCGLPKKVYANVKYGYQRDLNVDDDVTTVLDYGNGATGVFITCTHDIIGTDRLEITGDKGKILVEDSKKITLKSLNQSETQMNQDMTWEEVAELFKGNGMGDIYKEETFEFESVWGQQHISVLENFTANILDGTPLIAPGSDGINEGHHHHHH	soluble
MSLNLVSLRVITDDVARLVGFYERATGLRATWATEDFAELRTPSGTLAIGSTRTVPLFAPGSARPADNRSVIVEFLVDDVDAVHRNLTGFVDEFVREPTTMPWGNRALLFRDPDGNLVNFFTPVTEGHHHHHH	not soluble
MSLNNDDSPALTLDEYKQAQAIVILGGGSYQTKELYAETASGAPQLERLRYAAFLQKETGLPILTTGYSLIGISEGDLMAKELNQFFNVPTQWIENKARNTEENASFTKNILIKDHIQKIILVTNQWHMKRAKYLFEKQGFDVLPAAAASYGSKGNLSAKSFIPDLGALNSNMVLLKEWIGYWKAHYVEEGHHHHHH	not soluble
MSLNNIAPQSPVMRRLTLQDNPAIASVIRQVYAEYGLTADKGYTVADPNLDELYQVYSQPGHAYWVVEYNGEVVGGGGIAPLTGSEADICELQKMYFLPAIRGKGLAKKLALMAMEQAREMGFKRCYLETTAFLKEAIALYEHLGFEHIDYALGCTGHVDCEVRMLRELEGHHHHHH	not soluble
MSLNNLEKASRLIDEENNYYARSARINYYDLVINHAHGATLIDVDGNEYIDLLASASAINVGHTNERVVKAISRQAQKLIHYTPAYFHHVPGIELSKRLAELAPGNSPKMVSFGNSGSDANDAIIKFSRAYTSRQYIVSYMGSYHGSNYGSQSLSGTSLNMTRKIGPMLPGVVHVPYPDLYRRYAGETEHDVAIRYFNAFKAPFESFLPADETACVLVEPIQGDGGIVKAPEEYMQLVYKFCHDNGILFAVDEVNQGLGRTGKMWGIQQYKDIEPDLMSVGKSLASGMPLSAVVGKKDIMQSLDAPAHIFTTSGNPVCAAASLATLNVIRDDHLVEKSAKDGEYAKQRFLEMQRHHPIIGDVRMWGLNGGIELVKDPKTKEAENDAATKVIYYAFAHGVVIITLAGNILRFQPPLVISHKQLDKALQVLDDAFTAVEQNKVEVPKDTGKIGWEGHHHHHH	not soluble
